The values below come from patent US6645504B1, “Bystander suppression of type I diabetes by oral administration of glucagon” (AutoImmune Inc., priority 1987, dated 2003).

One assay relates to insulitis. The assay can be described thus: Suppression of insulitis in NOD mice by oral administration. The class given is in vivo. The conditions noted are these: fed orally. The method, then: NOD mice (Taconic Labs) were fed one mg of glucagon, or one mg of porcine insulin (both commercially purchased) or equal molar amounts of insulin A-chain, B-chain and B-chain peptides described below (all insulin fragments having been synthesized) twice weekly for five weeks and sacrificed at ten weeks of age.
Control animals were fed a non-pancreatic (i.e., unrelated) peptide, GAP. Insulitis was measured as a semiquantitative insulitis score according to the method described in Zhang, Z. J., PNAS(USA), 88:10252-10256, 1991.
The insulin B-chain peptides corresponded to amino acid residues 1-12 (B1-12), 10-22 (B10-22), 11-30 (B11-30) and 23-30 (B23-30). All animals were fed 10 times over three weeks.

In a further assay the test system is MBP line. The assay can be described thus: Transwell culture suppression of MBP T cell line. The class given is cell-based, Lewis rats. The text has this: Transwell Cultures. A dual chamber transwell culture system (Costar, Cambridge, Mass.), which is 24.5 mm in diameter and consists of two compartments separated by a semi-permeable polycarbonate membrane, with a pore size of 0.4 μm, was used. The two chambers are 1 mm apart, allowing cells to be coin-cubated in close proximity without direct cell-to-cell contact. To measure in vitro suppression of proliferative responses in transwell cultures, 5×10^4 MBP- or OVA-specific line cells, raised and maintained as previously described (Ben-Nun, A. et al., Eur. J. Immunol. 11:195, 1981), were cultured with 10^6 irradiated (2,500 rad) thymocytes, in 600 μl of proliferation media in the lower well. Spleen cells from orally tolerized rats or controls (fed BSA) were added to the upper well (5×10^5 cells in 200 μl). Spleen cells were removed 7-14 days after the last feeding, and a single cell suspension was prepared by pressing the spleens through a stainless steel mesh. MBP and OVA (50 μg/ml) were added in a volume of 20 μl. […] In some experiments, modulator cells were added in the lower well together with responder cells, and in these instances modulator cells were irradiated (1,250 rad) immediately before being placed in culture. Proliferation media consisted of RPMI 1640 (Gibco Laboratories, Grand Island, N.Y.) supplemented with […] 2-mercaptoethanol, 1% sodium pyruvate, 1% penicillin and streptomycin, 1% glutamine, 1% HEPES buffer, 1% nonessential amino acids, and 1% autologous serum. Each transwell was performed in quadruplicate. The transwells were incubated at 37° C. in a humidified 6% CO2 and 94% air atmosphere for 72 hours. After 54 hours of culture, each lower well was pulsed with 4 μCi of [^3H]thymidine and at 72 hours split and reseeded to three wells in a round-bottomed 96-well plate (Costar) for harvesting onto fiberglass filters and counting using standard liquid scintillation techniques. Percent suppression =100×(1−Δ A cpm responders cultured with modulators/Δ cpm of responders).

For the next assay, the system named is MBP specific T-cells. The assay can be described thus: In vitro suppression of proliferative responses by supernatants. The class given is cell-based, Lewis rats. Conditions: supernatants of splenocytes from fed animals stimulated in vitro with MBP; FIG. 1. The method, then:
Induction Of Oral Tolerance. Rats were fed 1 mg of MBP dissolved in 1 ml PBS, or PBS alone, by gastric intubation using a 18-gauge stainless steel animal feeding needle (Thomas Scientific, Swedesboro, N.J.). Animals were fed five times at intervals of 2-3 days with the last feeding two days before immunization. The purpose of this was to induce tolerance.
In Vitro Suppression Of Proliferative Responses By Supernatants. Spleen cells were removed 7-14 days after the last feeding and a single cell suspension prepared by pressing the spleens through a stainless steel mesh. For preparation of supernatants, spleen cells at a concentration of 5×10^6 cells/ml were stimulated in vitro with MBP (50 μg/ml) in 10 ml of proliferation medium. Proliferation medium consisted of RPMI 1640 (GIBCO, Grand Island, N.Y.) supplemented with 2×10^−5 M 2-mercaptoethanol, 1% sodium pyruvate, 1% penicillin and streptomycin, 1% glutamine, 1% HEPES buffer, 1% nonessential amino acids and 1% autologous serum. […] Cultures were harvested onto fiberglass filters using a multiharvester and counted using standard liquid scintillation techniques.
Purification Of T-Cell Subsets. […] The quantity of magnetic beads used was calculated as being 10 times the estimated target cell population. […]

[1] abbreviates: irradiated modulators in lower well with MBP line + MBP 50 μg/ml.
Where [2] appears, read: modulators in upper well, MBP line + MBP in lower well.

B1: MBP: Guinea pig myelin basic protein purified from brain tissue (protein, UniProt P25188 1-167, looked up)
Myelin basic protein: ASQKRPSQRHGSKYLATASTMDHARHGFLPRHRDTGILDSIGRFFGSDRAAPKRGSGKDSHHAARTTHYGSLPQKSQRSQDENPVVHFFKNIVTPRTPPPSQGKGRGLSLSRFSWGAEGQKPGFGYGGRADYKSKGFKGAHDAQGTLSKIFKLGGRDSRSGSPMARR
B1: the “suppression of insulitis (in words)” value with insulitis is reported as “No suppression was observed”. Moreover, the “Insulitis Score” value in the assay on insulitis (amount (mg) per Table 5, sacrificed at ten weeks of age) was determined as 2.14. Also, in the assay with MBP line (setting [1]), the “Percent Suppression” value is given as 51% and the Δ cpm was 18,412 ± 1,867 cpm. In the assay on MBP line (setting [2]), the “Percent Suppression” value was 59% and the Δ cpm was 15,620 ± 2,294 cpm. Also, in the assay on MBP specific T-cells, the “proliferation of the MBP line after addition of supernatants” value was “reduction in the proliferation of the MBP line”.
